From article PMC2629732 come the findings set out here.

Common to all, as to assay: EMSA
(In general: A gel shift assay detects complexes by their altered migration in electrophoresis.)

Data set [1] concerns the target T1, TRF3 (UniProt Q6SJ95 1-350).
T1 sequence: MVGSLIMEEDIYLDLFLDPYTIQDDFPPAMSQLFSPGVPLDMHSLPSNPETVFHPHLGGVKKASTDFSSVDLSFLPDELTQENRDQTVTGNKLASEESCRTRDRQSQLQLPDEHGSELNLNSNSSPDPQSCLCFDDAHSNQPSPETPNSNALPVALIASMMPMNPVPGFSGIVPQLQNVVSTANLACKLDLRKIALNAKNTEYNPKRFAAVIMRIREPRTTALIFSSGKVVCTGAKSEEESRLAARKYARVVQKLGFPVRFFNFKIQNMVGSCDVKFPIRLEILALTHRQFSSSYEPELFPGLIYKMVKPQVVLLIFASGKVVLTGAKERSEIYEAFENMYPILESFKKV

Data set [2] concerns the target T2, TAF3 (UniProt Q5HZG4 1-932).
T2 sequence: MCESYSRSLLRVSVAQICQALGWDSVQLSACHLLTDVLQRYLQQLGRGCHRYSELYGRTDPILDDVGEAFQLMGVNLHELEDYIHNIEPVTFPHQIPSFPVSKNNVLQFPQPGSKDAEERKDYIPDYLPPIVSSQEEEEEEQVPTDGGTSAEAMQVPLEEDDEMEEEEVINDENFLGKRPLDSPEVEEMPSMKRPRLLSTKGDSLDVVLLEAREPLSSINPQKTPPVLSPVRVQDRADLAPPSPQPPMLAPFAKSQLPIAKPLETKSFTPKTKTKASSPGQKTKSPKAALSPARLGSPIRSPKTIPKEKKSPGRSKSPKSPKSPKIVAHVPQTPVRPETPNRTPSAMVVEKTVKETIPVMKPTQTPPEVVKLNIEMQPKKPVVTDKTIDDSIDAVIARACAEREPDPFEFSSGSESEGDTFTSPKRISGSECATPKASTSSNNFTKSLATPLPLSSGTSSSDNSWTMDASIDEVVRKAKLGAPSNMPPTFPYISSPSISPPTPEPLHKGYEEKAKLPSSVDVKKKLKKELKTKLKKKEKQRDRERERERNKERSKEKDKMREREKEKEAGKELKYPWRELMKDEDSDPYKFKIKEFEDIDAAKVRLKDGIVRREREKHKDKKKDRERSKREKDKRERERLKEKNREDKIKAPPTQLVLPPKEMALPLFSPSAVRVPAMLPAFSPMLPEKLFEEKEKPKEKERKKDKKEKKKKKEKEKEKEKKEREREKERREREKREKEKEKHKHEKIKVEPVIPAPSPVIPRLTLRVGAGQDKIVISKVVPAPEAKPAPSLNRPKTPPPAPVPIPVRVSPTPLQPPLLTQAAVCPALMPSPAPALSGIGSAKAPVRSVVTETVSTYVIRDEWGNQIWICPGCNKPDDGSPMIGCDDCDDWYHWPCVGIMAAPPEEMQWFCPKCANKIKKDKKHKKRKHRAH

Data set [3] addresses T3, TAF3;TRF3 (mouse?;mouse?, UniProt Q5HZG4;Q6SJ95 1-932;1-350, |).
T3 sequence 1: T2 sequence
T3 sequence 2: T1 sequence

B1: Myogenin TATA probe / TATA competitor (dsDNA)
DNA 1: GAGGGTTTAAATGGCACCCAG
DNA 2: CTGGGTGCCATTTAAACCCTC
As for B1, the binding result was “binds” in data set [1], “no binding” in data set [2] and “binds” in data set [3].
